± gives the uncertainty stated by the source.
Assay: protein stability index of a GFP-peptide fusion (yeast GPS) (PSI 1-4); higher = more stable; sorted into four equal gates, so the index is relative within each strain
Method in brief: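 Yeast carrying a pooled library were grown to mid-log phase in leucine-free medium. Each library plasmid expresses Cherry and has a tiled 17-residue yeast protein peptide fused downstream of GFP. Cells were sorted into four equal gates by GFP/Cherry ratio, and plasmids from each gate were PCR-amplified, Illumina-sequenced and assigned to strains by barcode. Summing, across gates, the read frequency times the gate number gave each peptide's protein stability index.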

Sequence	protein stability index (doa10∆)	protein stability index (pdr5∆)	protein stability index (san1∆)	protein stability index (ubr1∆)
RMRFPPFDDDEPPLSYE [PRP8]	2.63 ± 0.047	3.06 ± 0.051	2.95 ± 0.035	2.61 ± 0.034
RMRNRALREMRKSDQQD [POP1]	3.61 ± 0.13	3.63 ± 0.17	3.23 ± 0.11	3.13 ± 0.13
RMRVSVLEKYEVIGYIA [SSN3]	1.4 ± 0.14	1.56 ± 0.2	1.09 ± 0.27	1.15 ± 0.049
RMSYGSHDKKTKCSTVV [SRP14]	2.96 ± 0.092	3.07 ± 0.12	3.19 ± 0.045	3.33 ± 0.088
RNEQVTIELKNGTTVWG [SMD1]	1.23 ± 0.099	1.78 ± 0.11	1.49 ± 0.24	1.16 ± 0.094
RNEVLESMDFLVLADAF [YCS4]	2.04 ± 0.048	2.31 ± 0.086	2.43 ± 0.092	2.72 ± 0.048
RNFDTHENYIQDDDFPL [MCD1]	2.92 ± 0.06	2.8 ± 0.053	2.85 ± 0.048	2.91 ± 0.045
RNLQMGLRNQNMVRNNN [GRR1]	2.62 ± 0.088	2.72 ± 0.093	2.63 ± 0.063	2.54 ± 0.055
RNMIIVPEMIGSVVGIY [RPS15]	1.31 ± 0.094	1.42 ± 0.057	1.53 ± 0.13	1.45 ± 0.057
RNNFLAENSHTQPKATS [PUP1]	3.14 ± 0.069	3.1 ± 0.059	3.06 ± 0.044	3.13 ± 0.04
RNRGKIHSGVLSSIESD [YMR153W/NUP53]	2.93 ± 0.1	2.96 ± 0.12	3.13 ± 0.066	2.94 ± 0.087
RNSYPASFYSVNTEKKT [RPN3]	3.4 ± 0.29	3.06 ± 0.13	2.82 ± 0.068	3.46 ± 0.14
RNTYQSAMGKQAMGVFL [RPB2]	1.62 ± 0.097	1.63 ± 0.11	1.53 ± 0.12	1.79 ± 0.052
RPDITMYCRPAPSDFSE [GRR1]	2.16 ± 0.12	2.12 ± 0.15	2.97 ± 0.067	2.17 ± 0.076
RPKKITGWITQSTPVLL [RPN1]	2.21 ± 0.048	2.11 ± 0.043	2.3 ± 0.057	2.18 ± 0.035
RPLKLERGFACIPLVGI [FAS1]	1.69 ± 0.067	1.73 ± 0.048	1.51 ± 0.092	1.69 ± 0.048
RPPNGIKNFKSLLLSSS [SSN2]	1.51 ± 0.047	1.53 ± 0.047	1.83 ± 0.12	1.48 ± 0.037
RPPVKAILQEKILSILN [ECM29]	1.46 ± 0.058	1.83 ± 0.084	1.71 ± 0.14	2 ± 0.11
RQCFQDNCCDFKVRTNL [MED1]	3.28 ± 0.053	3.23 ± 0.063	3.42 ± 0.04	3.21 ± 0.038
RQDGSYTYHSTNKDNKA [ARP9]	2.67 ± 0.062	2.97 ± 0.067	2.88 ± 0.044	2.64 ± 0.056
RQEVTKFAKANIGYVMG [RPN4]	1.2 ± 0.15	1.31 ± 0.11	1.21 ± 0.18	1.14 ± 0.065
RQFSNEEVNRCYLRWQH [SNF2]	2.83 ± 0.081	2.78 ± 0.08	2.95 ± 0.086	3.01 ± 0.071
RQINKLIDSLPGVDVSA [SRB7]	2.43 ± 0.056	2.06 ± 0.05	1.6 ± 0.077	1.9 ± 0.038
RQIRPIMERIKSSLSLR [ITC1]	1.26 ± 0.06	1.65 ± 0.075	1.35 ± 0.087	1.42 ± 0.054
RQKINGCEANIHSLVKQ [YIL149C/MLP2]	3.12 ± 0.14	3.33 ± 0.13	2.98 ± 0.22	2.79 ± 0.21
RQLQYETLGDILKRDFE [ECM29]	2.92 ± 0.075	3.36 ± 0.099	2.76 ± 0.095	3.02 ± 0.087

Sequence	protein stability index (doa10∆)	protein stability index (pdr5∆)	protein stability index (san1∆)	protein stability index (ubr1∆)
RQRELLIAHQRSAWNNN [GRR1]	1.94 ± 0.045	2.24 ± 0.046	2.31 ± 0.06	2.16 ± 0.035
RQSSDESDNYRLLPNGS [YML031W/NDC1]	3.03 ± 0.06	2.97 ± 0.06	3.13 ± 0.078	3.05 ± 0.054
RQTTSNTGLLNKANIQA [RPN11]	3 ± 0.092	3.02 ± 0.072	3.17 ± 0.054	3.19 ± 0.07
RRKTTKQNSSSDINQND [YDL088C/ASM4]	3.16 ± 0.096	3.15 ± 0.098	2.96 ± 0.083	2.95 ± 0.059
RRMAFKPFGSAKSDETK [YLR335W/NUP2]	2.75 ± 0.073	2.74 ± 0.063	2.88 ± 0.058	2.08 ± 0.054
RRWNKLCTLNDSKGSLY [YGL100W/SEH1]	3.31 ± 0.078	3.24 ± 0.072	2.91 ± 0.078	3.1 ± 0.046
RRYKLLTATPNSINKTT [POP1]	2 ± 0.046	2.38 ± 0.049	2.4 ± 0.065	2.52 ± 0.042
RSALEKGSRFISTLQVK [RPB2]	1.47 ± 0.13	1.23 ± 0.087	1.67 ± 0.19	1.6 ± 0.088
RSISEPSINLDPDNTSF [ESC2]	2.9 ± 0.074	3 ± 0.057	3.07 ± 0.058	3.165 ± 0.031
RSKFGGDFLDFQVHERL [ARP7]	3.15 ± 0.11	3.11 ± 0.1	3.5 ± 0.075	3.32 ± 0.075
RSPEEIRRTFNIVNDFT [SKP1]	1.36 ± 0.058	2.06 ± 0.094	1.53 ± 0.13	2.12 ± 0.04
RSRKTVKAQRPITGASL [RPL24A]	3.34 ± 0.077	3.22 ± 0.11	3.14 ± 0.12	3.24 ± 0.088
RSRYRREIDALKKQLHV [YIL149C/MLP2]	3.24 ± 0.074	3.16 ± 0.05	3.23 ± 0.045	3.2 ± 0.036
RTDQYTIDNIDSENFSF [YMR129W/POM152]	2.88 ± 0.042	2.99 ± 0.043	2.91 ± 0.039	3.01 ± 0.036
RTGPKALPDAVTIIEPK [RPS3]	2.97 ± 0.058	3.03 ± 0.066	3.1 ± 0.059	3.09 ± 0.06
RTKNLVSKMEKAEKTLK [SMC4]	2.91 ± 0.22	3.1 ± 0.056	3.21 ± 0.065	3.09 ± 0.058
RTMYFILDGQDVEENRS [YJR042W/NUP85]	2.45 ± 0.077	3.03 ± 0.089	3.22 ± 0.086	3.23 ± 0.044
RTPVIISLRNNHKIIAR [SMD2]	1.77 ± 0.042	1.97 ± 0.035	2.13 ± 0.06	1.81 ± 0.044
RTQPWSIMPDLYFYRDP [RPS0A]	2.55 ± 0.051	2.85 ± 0.056	2.85 ± 0.043	2.6 ± 0.055
RTVAGFSNVELPQCIIP [ARP7]	2.8 ± 0.05	2.76 ± 0.054	2.56 ± 0.051	2.7 ± 0.034
RVLQLLAVIMDNIGEID [YCG1]	1.93 ± 0.073	1.63 ± 0.067	1.46 ± 0.17	1.52 ± 0.046
RVRNKDIRKFLDGIYVS [RPL9A]	1.91 ± 0.081	2.07 ± 0.087	2.05 ± 0.11	2.23 ± 0.062
RVRVTGGGHVSQVYAIR [RPS16A]	2.61 ± 0.048	2.87 ± 0.045	2.93 ± 0.044	2.76 ± 0.031
RYQIMLPEQLKSGKFCS [SNM1]	2.74 ± 0.071	2.08 ± 0.09	2.7 ± 0.07	2.12 ± 0.061
SAAELERLDKDKDRDTR [SNF5]	1.76 ± 0.087	1.46 ± 0.14	1.9 ± 0.12	2.95 ± 0.11
